Measurements as given in patent publication US20240199757A1 (UNIVERSITY OF CHICAGO, published 2024).

T1: Full-length cynomolgus NT5E (recombinant) (cynomolgus, UniProt P21589 27-549 (human entry))
T1 construct: also called cNT5E; cyno NT5E
T1 chain: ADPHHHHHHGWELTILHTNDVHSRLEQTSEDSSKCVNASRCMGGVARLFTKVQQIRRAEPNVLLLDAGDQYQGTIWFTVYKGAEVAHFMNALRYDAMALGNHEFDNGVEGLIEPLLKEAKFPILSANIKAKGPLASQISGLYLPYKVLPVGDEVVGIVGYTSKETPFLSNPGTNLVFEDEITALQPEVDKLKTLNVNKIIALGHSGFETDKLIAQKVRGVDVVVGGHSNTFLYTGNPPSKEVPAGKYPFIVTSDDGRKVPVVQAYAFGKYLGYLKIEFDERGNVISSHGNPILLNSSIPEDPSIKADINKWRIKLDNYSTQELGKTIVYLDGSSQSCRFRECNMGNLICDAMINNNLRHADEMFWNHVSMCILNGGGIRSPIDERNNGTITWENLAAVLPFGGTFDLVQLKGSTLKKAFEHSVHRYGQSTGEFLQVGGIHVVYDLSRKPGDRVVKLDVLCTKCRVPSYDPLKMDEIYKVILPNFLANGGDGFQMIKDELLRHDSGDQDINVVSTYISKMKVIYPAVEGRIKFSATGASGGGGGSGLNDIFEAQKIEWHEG

T2: Full-length human NT5E (recombinant, in-house) (human, UniProt P21589 27-549)
T2 construct: also called hNT5E; hNT5EWT
T2 sequence: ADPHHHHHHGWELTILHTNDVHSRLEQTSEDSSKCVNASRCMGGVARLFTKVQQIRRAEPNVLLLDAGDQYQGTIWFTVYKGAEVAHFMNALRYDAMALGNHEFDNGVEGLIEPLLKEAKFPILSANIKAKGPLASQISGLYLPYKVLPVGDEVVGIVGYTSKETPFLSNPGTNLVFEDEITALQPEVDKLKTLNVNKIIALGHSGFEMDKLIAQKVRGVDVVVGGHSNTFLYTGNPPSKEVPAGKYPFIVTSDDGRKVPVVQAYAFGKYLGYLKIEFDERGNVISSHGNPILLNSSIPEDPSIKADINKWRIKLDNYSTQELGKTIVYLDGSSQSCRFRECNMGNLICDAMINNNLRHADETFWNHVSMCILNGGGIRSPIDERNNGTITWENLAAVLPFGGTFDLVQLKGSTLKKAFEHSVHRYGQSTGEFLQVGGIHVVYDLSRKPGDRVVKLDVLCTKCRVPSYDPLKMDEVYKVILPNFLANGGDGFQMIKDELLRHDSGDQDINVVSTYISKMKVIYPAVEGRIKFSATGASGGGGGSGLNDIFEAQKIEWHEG

T3: human NT5E expressed on MDA-MB-231 cells (human, UniProt P21589 27-549)
T3 sequence (looked up): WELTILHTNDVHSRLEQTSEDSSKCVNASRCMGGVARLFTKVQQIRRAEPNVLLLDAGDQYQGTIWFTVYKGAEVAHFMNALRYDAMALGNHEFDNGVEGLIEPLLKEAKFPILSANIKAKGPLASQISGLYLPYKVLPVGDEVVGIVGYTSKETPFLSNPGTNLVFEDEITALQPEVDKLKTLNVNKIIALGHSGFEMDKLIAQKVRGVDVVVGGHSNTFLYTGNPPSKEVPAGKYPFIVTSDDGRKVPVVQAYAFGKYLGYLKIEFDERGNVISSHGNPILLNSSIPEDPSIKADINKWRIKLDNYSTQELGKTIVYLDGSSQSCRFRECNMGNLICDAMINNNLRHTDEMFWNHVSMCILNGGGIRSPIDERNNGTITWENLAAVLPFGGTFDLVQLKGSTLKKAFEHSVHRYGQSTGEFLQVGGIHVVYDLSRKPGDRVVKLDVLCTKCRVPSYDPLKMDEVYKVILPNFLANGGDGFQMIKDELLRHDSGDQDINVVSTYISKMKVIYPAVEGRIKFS

B1: 1789 Fab (Fab, V domains shown)
VH: EVQLVESGGGLVQPGGSLRLSCAASGFNVSYSSIHWVRQAPGKGLEWVASISSSSGYTYYADSVKGRFTISADTSKNTAYLQMNSLRAEDTAVYYCARNYWGWYPFYYFAFDYWGQGTLVTV
VL: DIQMTQSPSSLSASVGDRVTITCRASQSVSSAVAWYQQKPGKAPKLLIYSASSLYSGVPSRFSGSRSGTDFTLTISSLQPEDFATYYCQQGWDYPITFGQGTKVEIKR
B2: 1789 IgG (antibody, V domains shown)
VH: EVQLVESGGGLVQPGGSLRLSCAASGFNVSYSSIHWVRQAPGKGLEWVASISSSSGYTYYADSVKGRFTISADTSKNTAYLQMNSLRAEDTAVYYCARNYWGWYPFYYFAFDYWGQGTLVTVSS
VL: DIQMTQSPSSLSASVGDRVTITCRASQSVSSAVAWYQQKPGKAPKLLIYSASSLYSGVPSRFSGSRSGTDFTLTISSLQPEDFATYYCQQGWDYPITFGQGTKVEIKR

Key:
[1] = molecular target: T1, Full-length cynomolgus NT5E …; experiment: ELISA, biotinylated NT5E on neutravidin plate, 1 mM ATP
Experimental: (§1) (B) Protein ELISA: Protein-based multipoint ELISA was performed to estimate the affinity of the generated Fabs and IgGs to NT5E. The binding of the Fabs and IgGs to the closed form of NT5E were determined in ELISA buffer (HBST) supplemented with 10 μM zinc chloride and 1 mM ATP while the binding of the same to open form of NT5E were determined in ELISA buffer (HBST) without any cofactors. A fixed concentration of the immobilized target (50 nM) on ELISA plate was incubated with 3-fold serial dilutions of the purified Fabs and IgGs starting from 3 μM and 1 μM respectively for 15 min. The plates were washed and were subsequently incubated with a secondary HRP-conjugated anti-protein L monoclonal antibody (#32420, ThermoFisher, 1:6000 dilution). As with phage ELISA, the plates were again washed, developed with TMB substrate and quenched with 1.0 M HCl, and absorbance (Abs450) was determined. To determine the affinity (EC50), the data were fitted with a non-linear, 4-parameter logistic curve in OriginLab.

[2] = molecular target: T2, Full-length human NT5E (recombinant, …); experiment: as above
Experimental: as §1

[3] = molecular target: T3, human NT5E expressed on MDA-MB-231 cells; experiment: cell-based or functional assay

Binder | EC50 [1] [nM] | EC50 [2] [nM] | IC50 of NT5E phosphate production on MDA-MB-231 cells, +500 µM ATP [3] [nM]
B1 | 28 | 37 | 122
B2 | 0.57 | 0.86 | 2.2
